According to the DeepSol protein solubility set:

Assay: soluble on expression in E. coli; label from the status in PepcDB or PDB records

| Sequence | soluble on expression in E. coli |
| --- | --- |
| VFIEERLEELSTFADSSDLTKIEYGNKKIGIITSGIAYNYAKEVIPDASFLKFGMSYPLPEEKIKEFVENCDKVYVFEELEPIFEQKIKSMGLNVIGKEIFPIIGELSSEIIRNALLNESKEVIDKFDELPQRPPVLCPGCHHRGPFYVLKKLKLHVAGDIGCYTLGGFGPLNAIDTTICMGASIGMAH | not soluble |
| VGSIQPDFLGSVNSSLRYKNWTLRASMDMRFGGMVAIYGSHYGTAYGYLKSSMNGVDAENGGITYTSIWDGLTYDDGIIPEAIMPGGQTINTPSGTYTIAEGGELYADLVNRGIVDPQHASSWNYWNNSWGRAAVWKNNDWFHELNYIALREVSLSYRMPGKIADKIGASGINLTLTGRNLGYLLNSLPNNFNPESLRGTQAGQFMIRSVSPYTASYTFTINATF | not soluble |
| VIHVTKEVKEVATLSCGHNVSVEELAQTRIYWQKEKKMVLTMMSGDMNIWPEYKNRTIFDITNNLSIVILALRPSDEGTYECVVLKYEKDAFKREHLAEVTLSVKADFPTPSISDFEIPTSNIRRIICSTSGGFPEPHLSWLENGEELNAINTTVSQDPETELYAVSSKLDFNMTTNHSFMCLIKYGHLRVNQTFNWNTAK | soluble |
| VKDISMENLKKIFLGEVTNWKELGGKDQKIVILNRAAGSGTRATFEKWVLGDKTAIRAQEQDSSGMVRSIVSDTPGAISYTAFSYVTDEVATLSIDGVQPTDENVMNNKWIIWSYEHMYTRKNP | not soluble |
| VKRFWENVGKPNDTTDGRGTTSLAMTPISQTPGLLAEAMVDLGAIEHNVRVLREHAGHAQLMAVVKADGYGHGATRVAQTALGAGAAELGVATVDEALALRADGITAPVLAWLHPPGIDFGPALLADVQVAVSSLRQLDELLHAVRRTGRTATVTVKVDTGLNRNGVGPAQFPAMLTALRQAMAEDAVRLRGLMSHMVYADKPDDSINDVQAQRFTAFLAQAREQGVRFEVAHLSNSSATMARPDLTFDLVRPGIAVYGLSPVPALGDMGLVPAMTVKCAVALVKSIRAGEGVSYGHTWIAPRDTNLALLPIGYADGVFRSLGGRLEVLINGRRCPGVGRICMDQFMVDLGPGPLDVAEGDEAILFGPGIRGEPTAQDWADLVGTIHYEVVTSPRGRITRTYREAENR | soluble |
| VLDPLGPGAPVLVAGGRVTGQAVAAVLTRFGATPTVCDDDPVMLRPHAERGLPTVSSSDAVQQITGYALVVASPGFSPATPLLAAAAAAGVPIWGDVELAWRLDAAGCYGPPRSWLVVTGTNGKTTTTSMLHAMLIAGGRRAVLCGNIGSAVLDVLDEPAELLAVELSSFQLHWAPSLRPEAGAVLNIAEDHLDWHATMAEYTAAKARVLTGGVAVAGLDDSRAAALLDGSPAQVRVGFRLGEPAARELGVRDAHLVDRAFSDDLTLLPVASIPVPGPVGVLDALAAAALARSVGVPAGAIADAVTSFRVGRHRAEVVAVADGITYVDDSKATNPHAARASVLAYPRVVWIAGGLLKGASLHAEVAAMASRLVGAVLIGRDRAAVAEALSRHAPDVPVVQVVAGEDTGMPATVEVPVACVLDVAKDDKAGETVGAAVMTAAVAAARRMAQPGDTVLLAPAGASFDQFTGYADRGEAFATAVRAVIR | not soluble |
| VLDVDTARRRIVDLTDAVRAFCTAHDDGLCNVFVPHATAGVAIIETGAGSDEDLVDTLVRLLPRDDRYRHAHGSYGHGADHLLPAFVAPSVTVPVSGGQPLLGTWQSIVLVDLNQDNPRRSVRLSFVEG | not soluble |
| VNIKTNPFKAVSFVESAIKKALDNAGYLIAEIKYDGVRGNICVDNTANSYWLSRVSKTIPALEHLNGFDVRWKRLLNDDRCFYKDGFMLDGELMVKGVDFNTGSGLLRTKWTDTKNQEFHEELFVEPIRKKDKVPFKLHTGHLHIKLYAILPLHIVESGEDCDVMTLLMQEHVKNMLPLLQEYFPEIEWQAAESYEVYDMVELQQLYEQKRAEGHEGLIVKDPMCIYKRGKKSGWWKMKPENEADGIIQGLVWGTKGLANEGKVIGFEVLLESGRLVNATNISRALMDEFTETVKEATLSQWGFFSPYGIGDNDACTINPYDGWACQISYMEETPDGSLRHPSFVMFR | soluble |
| VPKVTFTVEKGSNEKHLAVLVKYEGDTMAEVELREHGSDEWVAMTKGEGGVWTFDSEEPLQGPFNFRFLTEKGMKNVFDDVVPEKYTIGATYAPEE | soluble |
| VRVLSYDKEKLNWLYKDPQGLVQGPFSLTQLKAWSDAEYFTKQFRVWMTGESMESAVLLTDVLRL | soluble |
| VSIAQAQVVVSSKIDTEGGVLGNIILAVLNQNKIETTDRIQLGATPVVRKAITAGEIDIYPEYTGNAAFFFSKADDPLWKDAAKGYEEAKTLDYDANKIVWLAPSPANNTWAIALRKDVADKNNLKTLSDFGKYVAGGGTVVLAASSEFVNSAAALPAFQTTYGFTMKPDQLITLSGGDTAATIAAAANQTNNANAAMVYGTDGGIAPSGLVVLEDDKHVQPVYQPAPIIREEVLKKHPNIEELLKPVFEKLDLATLQDLNARVQVGGEQAKTVAMDFLTKNGFAK | soluble |
| VSLDKKLMPVPDGHPDVFDREWPLRVGDIDRAGRLRLDAACRHIQDIGQDQLREMGFEETHPLWIVRRTMVDLIRPIEFGDMLRCRRWCSGTSNRWCEMRVRVDGRKGGLIESEAFWIHVNRETEMPARIADDFLAGLHRTTSVDRLRWKGYLKPGSRDDASEIHEFPVRVTDIDLFDHMNNAVYWSVIEDYLASHAELLRGPLRVTIEHEAPVALGDKLEIISHVHPAGSTEIFGPGLVDRAVTTLTYVVGDEPKAVASLFNL | soluble |
| VSQLFEEKAKAVNELPTKPSTDELLELYALYKQATVGDNDKEKPGIFNMKDRYKWEAWENLKGKSQEDAEKEYIALVDQLIAKYSS | soluble |
| VTAVPTDSAEKPAVADAGVRSVTRVIDLLELFDAAHPTRSLKELVEGTKLPKTTVVRLVATMCARSVLTSRADGSYSLGPEMLRWVRLAGRTWAPPEEVVDIMRQLSADTGETVNLYIRQGLSRVVVAQCESTATVRSVIPLGVPYPLWAGAAGKILLLAAPELIDDVAADSPHGPEFADQLREKVEDGRERGYQLVHGERELGSSGLSFPLVDSHGTVVAALTLGGPTGRFTEDRTPHYIECTRAAAEEISAIGLPGLD | soluble |
| VTLSLTKDNFDDVVNNADIILVEFYAPWCGHCKKLAPEYEKAAKELSKRSPPIPLAKVDATEQTDLAKRFDVSGYPTLKIFRKGRPFDYNGPREKYGIVDYMIEQSG | soluble |
| VTWKGSGQETVGAEPTLWAISDLHTGHLGNKPVAESLYPSSPDDWLIVAGDVAERTDEIRWSLDLLRRRFAKVIWVPGNHELWTTNRDPMQIFGRARYDYLVNMCDEMGVVTPEHPFPVWTERGGPATIVPMFLLYDYSFLPEGANSKAEGVAIAKERNVVATDEFLLSPEPYPTRDAWCHERVAATRARLEQLDWMQPTVLVNHFPLLRQPCDALFYPEFSLWCGTTKTADWHTRYNAVCSVYGHLHIPRTTWYDGVRFEEVSVGYPREWRRRKPYSWLRQVLPDPQYAPGYLNDFGGHFVITPEMRTQAAQFRERLRQRQSR | not soluble |
| WFDTLNCHRLSDYQVGRAADIRLPEGCAFSDGIGSAFALEEAPPFSGRPDMPTAADFLALAAKGGYPAVHAAHAGLLYVRNKIALTAKEQAERRARP | not soluble |
| WGTIPGQNFIYAHLNRVIKKYDLDMIYVSGPGHGGQVMVSNSYLDGTYSEVYPNVSRDLNGLKKLCKQFSFPGGISSHMAPETPGSINEGGELGYSLAHSFGAVFDNPDLITACVVGDGEAETGPLATSWQANKFLNPVTDGAVLPILHLNGYKISNPTVLSRIPKDELEKFFEGNGWKPYFVEGEDPETMHKLMAETLDIVTEEILNIQKNARENNDCSRPKWPMIVLRTPKGWTGPKFVDGVPNEGSFRAHQVPLAVDRYHTENLDQLEEWLKSYKPEELFDENYRLIPELEELTPKGNKRMAANLH | not soluble |
| WLRDVLDSEAFRHTQATLPMALGKDISGQPIVVDMAKMPHLLVAGQTGGGKSVGINTMILSLLFKLTPEQVRFIMIDPKVVELSVYNDIPHLLTPVVTDMKKAANALRWAVGEMERRYLLISHLQVRNIEGYNDKIDQASAMNFPIPDPTWRPADSIGQLPPPLTKLSYIVLIVDEFADLIMSAGKEVEEYIMRIAQKARAVGIHLILATQRPST | not soluble |
| WQENMLIPMMAINEDNLWVHQKYGYAIPRRNGKTEVVYILELWALHKGLKILHTAHRISTSHSSFEKVKKYLEMSGYVDGEDFISNKAKGQERIEFKSSGSVIQFRTRTSNGGLGEGFDLLIIDEAQEYTAEQESALKYTVTDSDNPMTIMCGTPPTMVSTGTVFESYRKECLKGDRRYSGWAEWSVDEMQPIHDVKSWYVANPSMGYHLNERKIEAELGEDEIDHNIQRLGYWPSFNQKSVISEKEWAKLKVEQVPELKSKLFVGIKFGQDGNNVSLSIAARASENKVFVEAIDCLSVRNGTQWIINFLKSADIAKVVVDGASGQELLAQEMREHGLKKPELPKVAEIITANTMWEQGIMQETICHNDQPSLTAVVTNCEKRQIGSNGGFGYKSLYDDRDISLMDSALLAHWICYTTKPKRKQRTSC | not soluble |
| WSKIEKEQFYIAICAMNKTIAQKLFVLMKKAKKWLLQPDVRELKRFSIIDQKQLIYSYLIYHKINVNGEKIDAILDFIQPSQQKQYRLQNDIFLMVKNQCLALLYK | soluble |
| YCICNQVSYGEMVGCDNQDCPIEWFHYGCVGLTEAPKGKWYCPQCTAAMKRRGSRHK | soluble |
| YEFKKRNNIPMFFGIGNVTELFDVDSNGVNASIAAIGQEIGGNILFTPEASKKCKFSIKELKTASKMLFLAKKRNSLPKDVGYDLINYKDKKFDEEFELEDVKIIEAFENEKQLLDRGSFKIRVDRKNKEINATYYVHNQPKLIIRGNDPKKIYETALRENLITKMDHAAYFGKELRNAELALKLGKKYNQDFELFYNEFWN | not soluble |
| YETQSREKQTRQQHEHMLMIVSNLYEETVHLKKTLKTTEKVTNDSYQLYREMKGKDVQLSGRILRLAGEIHEVKKDNQRIFAGLSKLISNESLRDYMRASDLLQLVIRMNEKYAEALGKQIDFYCSIEGEHDEYHVFIVLSIINNLTANAVEAMDEEGMVSLRLRKPNESMVEFQVEDNGPGISEKIGDIVFDPGFTSKYDEFGTPSTGIGLSYVKEIVTELEGDITFDNQQRGVVFAIRLPVRHLIQKG | not soluble |
| YLDLWQTQDAKIRAKLAAVFQAEQNLNEAAIAYCLARALPEETAIFFANSMVVRYAEFFWQLNDQQILPYFNRGANGIDGTLSTALGIAENHSPAVLLTGDLALLHDINGFLTLSKFTGSLTIIVINNQGGGIFEMLPIAEEKDIFEDYFATPQTVEFSKVCDLYGIEYQAIQTKADLMQTCAILPPRGVRLLEVKTNRNQAMTWLKDLFQ | not soluble |
| YPMVNNYLEMGHGLYVVEIHVKSNLHDTPLSKLISRGSYNIQPILVKREEAVYTNINDEFVLNEFDTLLLCGSRAELKYVAPRLV | not soluble |
| YPNVEVFGEVPIQVVNAEPLGMHSNVMEAMFTAITRAKKNVYIETPYFIPTECLLQAIQTASMSGIDVRLVMPKRSDNDFVQYASNSYVEKLLRNKVRVYQYVNGFTHSKLMIVDDELVVVGSANMDIRSLELLFETNLFIYDKKVAQTVRDIYHTDMNNSKELNLRDWLQR | not soluble |
| YRFSDFEMGLLQTHAEMAERMVNEIGGEHLEIRVLAEITELLQERNEELSPFLTRVLSMATELIGADTGSIAIVQERDGEKWLVVEDEEGTIVGAKNKSWLKKYIPPFRIGGHELPAEERSLTGYVAWSKQPKIIAHVADEQGGEGFHRSMHELIKSEIAVPIVCDDEVIAVVCLNSLKPAWFTEEHKRILQIIDRLTSRHISDVQRIERLEGEVTRLKTDVAYKDPQISSYR | not soluble |
